Experimental data as given in patent publication US20250340623A1 (AC IMMUNE, published 2025).
Where a chain is given by its changes, count along the chain named.

B1: ACI-7079-3106F2-Ab1 (antibody, V domains shown)
VH: EVQLQQSGAELVRPGASVKLSCTASGFNVKDDYMHWVKQRPEQGLEWIGWIDPENGDTEYASKFQGKATLTADTSSNTAYLQLSGLTSVDTAVYYCTTAGTSPYYFDYWGQGTTLTVSS
VL: DIVMTQSQKFMSTSVGDRVSVTCKASQNVGTNVAWYQQKVGQSPKALIYSASYRYSGVPDRFTGSGSGTDFTLTISNVQSEDLADYFCQQYNSYPLTFGSGTKLEIK
notes: mouse hybridoma mAb; VH/VL only; also called 3106F2C8
B2: ACI-7079-2601B6-Ab1 (antibody, V domains shown)
VH: EIQLQQSGAELVRPGASVKLSCTTSGFNIKDDYIHWVKQRPEQGLEWIGWIDPENGDTDYASKFQGKATITADTSSNTAYLHLSSLTSEDAAVYFCTTRGFGYWGQGTLVTVS
VL: DIVMTQSHKFMSTSVGDRVSITCKASQDVGNVVAWYQQKPGQSPKLLIYWASSRHTGVPDRFTGSGSGTEFTLTISNVQSEDLADYFCQQYSSYPLTFGAGTKLELK
notes: mouse hybridoma mAb; VH/VL only; also called 2601B6D2; ACI-7079-26016NAbM
B3: ACI-7088-4301E12-Ab2 (antibody, V domains shown)
VH: DVQLQESGPGLVKPSQSLSLTCSVTGYSITSGYYWNWIRQFPGNKLEWMGYISDDGSKNYNPSLKNRISITRDTSKNQLFMKLNSVTTEDTATYYCARGDSRLGQGTLVTVSA
VL: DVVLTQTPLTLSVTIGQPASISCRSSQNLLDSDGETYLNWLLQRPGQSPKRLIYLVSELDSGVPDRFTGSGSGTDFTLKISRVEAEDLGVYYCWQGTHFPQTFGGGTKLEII
notes: mouse hybridoma mAb; VH/VL only; also called 4301E12B9
B4: ACI-7079-3103D9-Ab1 (antibody, V domains shown)
VH: QVSLKESGPGILQPSQTLSLTCSFSGFSLSTFGMGVGWIRQPSGKGLDWLTHIWWDDDKYYNPGLKSRLTISKDTSKNQVFLEIANVDTADTATYYCARIGDYYGTRGYFDVWGTGTTVTVSS
VL: DIVMTQSPSSLTMSLGQTVTMSCKSSQSLLNSSNQKNHLAWYQQRPGQSPKLLVYFASTRESGVPERFIGGGSGTDFTLTISNVQSEDLTDYFCQQHYSTPYTFGGGTKLEIK
notes: mouse hybridoma mAb; VH/VL only; also called 3103D9C9
B5: ACI-7079-3106C5-Ab1 (antibody, V domains shown)
VH: B4 VH with S3T, D48E, G64A, K73R, T75P, E83K, T106S
VL: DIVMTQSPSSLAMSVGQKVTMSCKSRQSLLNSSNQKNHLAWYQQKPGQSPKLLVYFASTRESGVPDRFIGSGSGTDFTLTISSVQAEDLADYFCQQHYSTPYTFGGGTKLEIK
notes: mouse hybridoma mAb; VH/VL only; also called 3106C5B7
B6: ACI-7079-3104F12-Ab2 (antibody, V domains shown)
VH: B4 VH with S3T, L12V, S30N, M34L, G64A, E83K, Y103F, T106S
VL: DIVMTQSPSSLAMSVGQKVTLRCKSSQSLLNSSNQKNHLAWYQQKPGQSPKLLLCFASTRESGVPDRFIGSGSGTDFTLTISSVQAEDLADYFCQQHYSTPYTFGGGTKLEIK
notes: mouse hybridoma mAb; VH/VL only; also called 3104F12F2H7
B7: ACI-7079-3107E6-Ab1 (antibody, V domains shown)
VH: B4 VH with S3T, D48E, G64A, T75A, V80M, E83K, Y96F, T106S, Y109F
VL: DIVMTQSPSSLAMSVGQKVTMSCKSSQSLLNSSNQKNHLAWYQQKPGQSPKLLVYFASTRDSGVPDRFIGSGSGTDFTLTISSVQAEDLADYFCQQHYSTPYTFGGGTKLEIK
notes: mouse hybridoma mAb; VH/VL only; also called 3107E6A3
B8: ACI-7088-4301D5-Ab2 (antibody, V domains shown)
VH: QVQLQQSGPELVRPGASVKISCKASGYRFTSYYIHWVKQRPGQGLEWIGWIYPGSDNTKHNDKFKGKATLTADTSSSTAYMQLSSLTSEDSAVYFCARDYDVGFGYWGQGTLVTVSS
VL: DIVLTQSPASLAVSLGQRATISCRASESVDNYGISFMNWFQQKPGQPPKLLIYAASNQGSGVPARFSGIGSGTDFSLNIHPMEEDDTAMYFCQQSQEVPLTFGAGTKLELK
notes: mouse hybridoma mAb; VH/VL only; also called 4301D5B10
B9: ACI-8033-6403E11-Ab2 (antibody, V domains shown)
VH: DVQLQESGPGLVKPSQSLSLTCSVTGYSITSAYYWNWIRQFPGNKLEWMGYISYDGSNNYIPSLKNRISISRDTSKNQFFLKLNSVTTEDTATYYCIRGDVNWGQGTTLTVSS
VL: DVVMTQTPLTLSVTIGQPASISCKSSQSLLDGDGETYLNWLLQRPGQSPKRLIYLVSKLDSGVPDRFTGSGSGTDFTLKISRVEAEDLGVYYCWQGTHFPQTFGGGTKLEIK
notes: mouse hybridoma mAb; VH/VL only; also called 6403E11B4
B10: ACI-8033-6402E10-Ab1 (antibody, V domains shown)
VH: B9 VH with S15V, A32G, Y54S, I61N, N84D, I97V, G99A, V101N, N102Y
VL: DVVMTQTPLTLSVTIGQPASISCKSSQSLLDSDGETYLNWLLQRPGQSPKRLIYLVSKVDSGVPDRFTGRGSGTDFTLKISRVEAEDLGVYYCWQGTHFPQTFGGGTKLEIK
notes: mouse hybridoma mAb; VH/VL only; also called 6402E10B3
B11: ACI-7089-4418C5-Ab1 (antibody, V domains shown)
VH: B9 VH with V2G, A32G, S53N, I61N, S71T, L83F, S85F, I97V, N102Y
VL: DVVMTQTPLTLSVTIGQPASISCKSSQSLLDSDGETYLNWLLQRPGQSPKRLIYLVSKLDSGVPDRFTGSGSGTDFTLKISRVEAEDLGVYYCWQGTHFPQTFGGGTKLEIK
notes: mouse hybridoma mAb; VH/VL only; also called 4418C5G1
B12: ACI-7089-4415G5-Ab1 (antibody, V domains shown)
VH: QVQLQQSGAELARPGASVKVSCKASGYTFTSSGISWLKHRTGQGLEWIGDIYPRSGNTYYNEKFKDKATLTADKSSSTAYMELRSLTSEDSAVYFCASGNYWGQGTTLTVSA
VL: DIVITQDDLSNPVTSGESVSISCRSSKSLLYKDGKTYLNWFLQRPGQSPQLLIYLMSTRASGVSDRFSGSGSGTDFTLEISRVKAEDVGVYYCQQLLEYPLTFGAGTKLELK
notes: mouse hybridoma mAb; VH/VL only; also called 4415G5A11
B13: ACI-7087-4119E10-Ab2 (antibody, V domains shown)
VH: QVQLQQSGAELVRPGASVTLSCKASGYTFSDYEMNWVKQTPVHGLEWIGAIDPETGGTAYNQKFKGKAILTSDKSSSTAYMELRSLTSEDSAVYYCTRFLLIDFDYWGQGTTLTVSS
VL: DVLMTQTPLSLPVSLGDQASISCRSSQSIVHSNGNTYLEWYLKKAGQSPKVLIYKVSNRFSGVPDRFSGSGSGTDFTLKISRVEAEDLGVYYCFQGSHVPYTFGGGTELEIK
notes: mouse hybridoma mAb; VH/VL only; also called 4119E10D12
B14: ACI-7079-3103G12-Ab2 (antibody, V domains shown)
VH: DVQLQESGPGMVKPSQSLSLTCTVTGYSITSGYDWHWIRHFPGNKLEWMGYITYSGSTNYNPSLKSRISITHDTSKNHFFLKLTSVTTEDTATYYCARDTVDAWFAYWGQGTLVTVSA
VL: B13 VL with T7A, N35D, K43Q, A45P, V51L, Y101P, E108K
notes: mouse hybridoma mAb; VH/VL only; also called 3103G12D2B10
B15: ACI-7079-3101E3-Ab1 (antibody, V domains shown)
VH: QVQLKESGPGLVAPSQSLSITCTVSGFSLTRYIINWVRQPPGKGLEWLGVIWTGGGTDYNSALKSRLSISKDNSKSQVFLKMNSLQTDDTARYYCAREYGYDGAWFAYWGQGTLVTVSA
VL: B13 VL with S28T, K43Q, A45P, V51L, E108K
notes: mouse hybridoma mAb; VH/VL only; also called 3101E3C9
B16: ACI-8033-21C8-Ab1 (antibody, V domains shown)
VH: QVQLQQPGAELVKPGASVKMSCKASGYTFTSYWITWVRQRPGQGLDWIGDIYPGGGVTNYNEKFKTKATLTVDTSSSTAYMHLSSLTSEDSAVYFCATAQTTFAYWGQGTLVTVSA
VL: B13 VL with S28N, S32N, K43Q, A45P, V51L, Y101R, E108K
notes: mouse hybridoma mAb; VH/VL only; also called 917.21C8E4C8
B17: ACI-7087-4125E6-Ab1 (antibody, V domains shown)
VH: QVQLQQPGTELVKPGASVRLSCKASGYAFTSYWMHWVKQRPGQGLEWIGNINPSNGGTNYNEKFKNKATLTVDKSSSTAYMQLSGLTSEDSAVYYCATGLHYWGQGTTLTVSS
VL: DIQMTQSPSSLSASLGERVTLTCRASQDIGNYLNWLQQEPDGTIKRLIYATSSLDSGVPKRFSGSRSGSDYSLTISSLESEDFVDYYCLQFASSPLTFGPGTKLELK
notes: mouse hybridoma mAb; VH/VL only; also called 4125E6D5
B18: ACI-8033-22E5-Ab1 (antibody, V domains shown)
VH: EVQLVESGGDLVKPGGSLKLSCAASGFTFSSYGMSWVRQTPDKRLEWVATISNGGSYTYYPDSVKGRFTISRDNAKNTLYLQMSSLKSEDTAMYYCARQLRRDGWYFDVWGTGTTVTVSS
VL: EIVLTQSPALMAASPGEKVTITCSVSSSISSSKLHWYQQKSETSPKLWIYGTSNLASGVPVRFSGSGSGTSYSLTISSMEAEDAATYYCQQWSSYPLTFGAGTKLELK
notes: mouse hybridoma mAb; VH/VL only; also called 917.22E5C5F7
B19: ACI-7079-3108C10-Ab2 (antibody, V domains shown)
VH: ELQLVESGGGLVRPGGSLKLSCATSGFTFRNYAMSWVRQTPAKRLEWVATISDGGTYTFYSDNVKGRFTISRDNVKNTLYLQMSHLKSEDTAMYYCSRAGSGHWGQGTTLTVSS
VL: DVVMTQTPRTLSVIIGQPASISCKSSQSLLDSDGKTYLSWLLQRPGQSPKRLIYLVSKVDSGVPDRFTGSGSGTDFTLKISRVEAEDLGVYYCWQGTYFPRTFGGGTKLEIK
notes: mouse hybridoma mAb; VH/VL only; also called 3108C10G6

Each binder was assayed against monomeric alpha-synuclein (UniProt P37840 1-140) (assay: SPR, captured mAb).
Method: (§1) Non-covalent immobilization of alpha-synuclein antibodies was performed using a target immobilization method of 2000 response units (RU). Antibodies were diluted in 10 mM sodium acetate pH 5.5 (GE Healthcare, BR-1003-52) to a final concentration of 5 μg/mL.
(§2) Binding affinity of alpha-synuclein antibodies to monomeric or fibrillar alpha-synuclein species was performed using a single-cycle kinetics method. The instrument was primed with 1×HBS-P+ buffer (10× stock from GE Healthcare, BR-1003-52 diluted in Milli-Q water). Injections of monomeric alpha-synuclein (aSyn) (Boston Biochem, SP-485), increasing in concentration from 0.62-50 nM prepared from serial 2-fold dilutions, were performed with contact times of 300 sec/injection at a flow rate of 30 μL/min. A dissociation phase of 900 sec followed the final 50 nM injection. Regeneration of the sensor to the goat anti-mouse antibody layer was achieved using 3 regenerations of 10 mM Glycine pH 1.7. […] Regeneration of the sensor to the goat anti-mouse antibody layer was achieved using 3 regenerations of 10 mM Glycine pH 1.7. Results obtained from single-cycle kinetics were evaluated by Biacore T200 evaluation software with 1:1 binding homogenous Langmuir model (with a global Rmax) with Cycle 5 as a blank subtraction. The following kinetic parameters were obtained: on-rate (ka), off-rate (kd), affinity constant (KD, ratio of kd by ka), maximum response (Rmax), and goodness of fit (Chi2).
(§3) Non-covalent capture of the alpha-synuclein antibodies was performed in three separate runs.

| Binder | Kd [nM] | koff [s⁻¹] | kon [M⁻¹ s⁻¹] |
| --- | --- | --- | --- |
| B1 | 392 | 0.135 | 344000 |
| B2 | 82.1 | 0.0238 | 290000 |
| B3 | 6 | 0.000118 | 19800 |
| B4 | 0.73 | 0.000437 | 598000 |
| B5 | 4.1 | 0.00325 | 792000 |
| B6 | 0.51 | 0.000452 | 892000 |
| B7 | 1.12 | 0.000859 | 765000 |
| B8 | 620 | 0.0353 | 56900 |
| B9 | 3.9 | 0.000293 | 75200 |
| B10 | 28.3 | 0.00058 | 20500 |
| B11 | 3.1 | 0.000141 | 45000 |
| B12 | 2.4 | 0.000141 | 60000 |
| B13 | 1040 | 0.0188 | 18000 |
| B14 | 2.4 | 0.0014 | 580000 |
| B15 | 300 | 0.0569 | 190000 |
| B16 | 1.6 | 0.000482 | 301000 |
| B17 | 442 | 0.0261 | 59100 |

These binders were tested against alpha-synuclein fibrils (UniProt P37840 1-140) (assay: SPR, captured mAb).
Method: as §1, §2, §3

| Binder | Kd [nM] | koff [s⁻¹] | kon [M⁻¹ s⁻¹] |
| --- | --- | --- | --- |
| B1 | 31.5 | 0.000367 | 11700 |
| B2 | 22 | 0.000382 | 17400 |
| B3 | 39 | 0.000166 | 4250 |
| B4 | 9.2 | 0.000413 | 44800 |
| B5 | 9.49 | 0.000237 | 25000 |
| B6 | 3.73 | 0.000268 | 71800 |
| B7 | 2.66 | 0.000146 | 55100 |
| B8 | 35.8 | 0.000385 | 10800 |
| B9 | 44.6 | 0.000273 | 6110 |
| B10 | 37.4 | 0.000152 | 4060 |
| B11 | 0.05 | 9.4e-06 | 207000 |
| B18 | 1.8 | 3.27e-05 | 18000 |
| B12 | 1.3 | 0.00031 | 242000 |
| B13 | 16.2 | 0.00453 | 280000 |
| B14 | 22.5 | 0.000563 | 25000 |
| B15 | 13.7 | 0.000129 | 9380 |
| B16 | 17.7 | 0.000156 | 8810 |
| B19 | 6.77 | 6.66e-05 | 9840 |
| B17 | 50.7 | 0.000567 | 11200 |
